Source: patent US20140056907A1 (Regeneron, published 2014)

T1: human ASIC1/ASIC3 channels (co-expressed human ASIC1a and human ASIC3) (human, UniProt Q9UHC3 1-531)
T1 construct: whole, on cells; 3T3 cells co-expressing both subunits; also called 3T3/hASIC1/3; 3T3-hASIC1/ASIC3
T1 sequence 1: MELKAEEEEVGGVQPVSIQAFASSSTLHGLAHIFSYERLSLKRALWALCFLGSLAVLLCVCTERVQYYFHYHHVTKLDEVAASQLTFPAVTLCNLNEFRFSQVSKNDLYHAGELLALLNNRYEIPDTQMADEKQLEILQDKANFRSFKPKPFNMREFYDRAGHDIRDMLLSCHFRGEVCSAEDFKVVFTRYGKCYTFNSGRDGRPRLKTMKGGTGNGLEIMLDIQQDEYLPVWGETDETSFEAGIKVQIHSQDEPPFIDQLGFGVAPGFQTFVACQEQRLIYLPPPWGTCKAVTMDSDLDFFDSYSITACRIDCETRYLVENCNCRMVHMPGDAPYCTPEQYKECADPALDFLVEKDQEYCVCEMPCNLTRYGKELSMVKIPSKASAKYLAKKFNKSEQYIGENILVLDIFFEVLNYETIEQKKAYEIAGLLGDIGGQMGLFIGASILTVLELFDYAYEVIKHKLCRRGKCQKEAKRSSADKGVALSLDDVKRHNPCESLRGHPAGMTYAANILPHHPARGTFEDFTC
T1 sequence 2: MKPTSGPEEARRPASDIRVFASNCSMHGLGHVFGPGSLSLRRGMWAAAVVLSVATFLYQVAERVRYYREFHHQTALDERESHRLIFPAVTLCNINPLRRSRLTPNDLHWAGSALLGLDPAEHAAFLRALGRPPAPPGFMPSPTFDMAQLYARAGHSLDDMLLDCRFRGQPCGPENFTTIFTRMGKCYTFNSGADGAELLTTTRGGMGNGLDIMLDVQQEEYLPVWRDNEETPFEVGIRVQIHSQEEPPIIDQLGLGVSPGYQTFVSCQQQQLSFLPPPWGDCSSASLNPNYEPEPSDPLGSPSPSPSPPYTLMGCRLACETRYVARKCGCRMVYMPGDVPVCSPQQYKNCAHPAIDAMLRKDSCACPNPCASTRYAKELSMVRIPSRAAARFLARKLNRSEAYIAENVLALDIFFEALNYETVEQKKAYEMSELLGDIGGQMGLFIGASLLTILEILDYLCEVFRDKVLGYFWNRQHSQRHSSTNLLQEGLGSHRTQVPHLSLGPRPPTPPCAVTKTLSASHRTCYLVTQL

T2: human ASIC1 (human, UniProt P78348 1-528)
T2 construct: Ion channel subunit expressed on 3T3 (3T3/hASIC1) or HEK293 cells (HEK/hASIC1; HEK293 CL:1F10 transient); also called hASIC1; human ASIC1a
T2 sequence: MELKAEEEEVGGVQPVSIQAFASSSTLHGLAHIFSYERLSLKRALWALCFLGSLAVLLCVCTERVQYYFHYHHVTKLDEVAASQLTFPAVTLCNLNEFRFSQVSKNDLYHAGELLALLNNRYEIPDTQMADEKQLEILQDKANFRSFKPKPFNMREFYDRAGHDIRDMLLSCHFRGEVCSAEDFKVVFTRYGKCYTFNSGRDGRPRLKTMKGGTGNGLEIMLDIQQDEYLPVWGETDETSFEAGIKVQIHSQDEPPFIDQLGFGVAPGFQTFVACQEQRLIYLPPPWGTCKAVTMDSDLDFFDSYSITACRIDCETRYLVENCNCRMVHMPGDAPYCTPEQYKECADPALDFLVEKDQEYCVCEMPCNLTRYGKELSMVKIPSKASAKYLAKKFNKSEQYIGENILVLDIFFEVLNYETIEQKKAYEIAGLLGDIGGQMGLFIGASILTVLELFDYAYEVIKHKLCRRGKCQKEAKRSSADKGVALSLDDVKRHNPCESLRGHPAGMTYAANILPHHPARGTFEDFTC

T3: human ASIC3 (human, UniProt Q9UHC3 1-531)
T3 construct: whole, on cells; Expressed on 3T3 cells (3T3/hASIC3) or HEK293 cells (HEK/hASIC3-QCells); also called hASIC3
T3 sequence (looked up): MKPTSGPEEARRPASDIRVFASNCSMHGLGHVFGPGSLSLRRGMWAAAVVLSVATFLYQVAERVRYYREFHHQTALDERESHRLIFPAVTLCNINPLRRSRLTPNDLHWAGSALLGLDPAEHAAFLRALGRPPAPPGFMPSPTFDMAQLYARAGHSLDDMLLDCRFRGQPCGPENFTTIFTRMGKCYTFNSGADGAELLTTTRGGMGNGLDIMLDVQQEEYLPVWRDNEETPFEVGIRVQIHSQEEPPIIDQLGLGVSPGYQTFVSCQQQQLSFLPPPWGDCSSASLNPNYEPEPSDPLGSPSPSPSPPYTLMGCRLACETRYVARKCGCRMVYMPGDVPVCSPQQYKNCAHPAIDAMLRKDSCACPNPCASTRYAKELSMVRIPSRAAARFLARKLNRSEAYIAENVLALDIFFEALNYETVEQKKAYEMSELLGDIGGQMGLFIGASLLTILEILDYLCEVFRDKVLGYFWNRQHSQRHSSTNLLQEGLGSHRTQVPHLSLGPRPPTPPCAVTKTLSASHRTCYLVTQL

B1: H1M6712N (antibody, mouse IgG1, V domains shown)
VH: QVQLVQSGAEVKKPGASMKVSCKASGYTFTIYDINWVRQATGQGLEWMGWMNPRSGSTGYSQKFQGRVTMTRNTSINTAFMELSSLRSDDTAVYYCVRGQLVLGYWGQGTLVTVSS
VL: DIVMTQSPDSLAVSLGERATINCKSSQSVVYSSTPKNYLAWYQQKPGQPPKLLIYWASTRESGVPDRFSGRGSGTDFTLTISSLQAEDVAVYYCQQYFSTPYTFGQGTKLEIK
B2: H3M6715N (antibody, V domains shown)
VH: EELVLESGGGLVQPGGSLRLSCAASGFMFSTYAMSWVRQAPGKGLEWVSLISGRDGNTYYADSVKGRFTISRDNSRNTLYLQLNSLRAEDTALYYCAKDTAVVPGYGMDVWGQGTTVTVSS
VL: DIQMTQSPATLSASVGDRVTITCRASQTISNWLAWYQQRPGKAPKLLIYKASSLETGVPSRFSGSGSGTEFTLTISSLQPDDFASYYCQQYNSYSWTFGQGTKVEIK
notes: Chimeric: human variable, mouse constant domains; H3M prefix marks the Fc, isotype not spelled out
B3: H3M6713N (antibody, V domains shown)
VH: EELVLESGGGLVQPGGSLRLSCAASGFMFSTYAMSWVRQAPGKGLEWVSLISGRDGSTYYADSVKGRFTISRDISRNTLYLHLNSLRAEDTAVYYCAKDTAVVPGYGLDVWGQGTTVTVSS
VL: DIQMTQSPATLSASVGDRVTITCRASQTISNWLAWYQQRPGKAPKLLIYKASSLETGVPSRFSGSGSGTEFTLTISSLQPDDFASYYCQQYNSYSWTFGQGTKVEIK
notes: as for B2
B4: H3M6760N (antibody, V domains shown)
VH: EDRVLESGGGLVQPGGSLRLSCAASGFMFSSYAMSWVRQAPGKGLEWVSLISGRDGNTYYADSVKGRFTISRDNSRNTLYLQLNSLRAEDTAVYYCAKDTAVVPGYGMDVWGQGTTVTVSS
VL: DIQMTQSPSTLSASVGDRVTITCRASQSISNWLAWYQQRPGKAPKLLIYKASSLESGVPSRFSGSGSGTEFTLTISSLQPDDFASYYCQQYNSYSWTFGQGTKVEIK
notes: as for B2

Assays:
[1] = molecular target: T1, human ASIC1/ASIC3 channels …; assay: FACS, 3T3/hASIC1/3 cells, 10 nM antibody
From the text: (§1) For these experiments, four cell lines were constructed: (a) a mouse fibroblast 3T3 cell line stably transfected to overexpress full length human ASIC3 (3T3/hASIC3; amino acids 1-531 of NCBI accession number NP_{—}004760.1), (b) a 3T3 cell line stably transfected to co-express full length human ASIC1a and human ASIC3 (3T3/hASIC1/3; amino acids 1-528 of NCBI accession number NP_{—}001086.2 and amino acids 1-531 of NCBI accession number NP_{—}004760.1), (c) […] a stably transfected 3T3 cell line expressing the full-length mouse ASIC3 channel (3T3/mASIC3; amino acids 1-530 of NCBI accession number NP_{—}892045.2), and (d) a 3T3 cell line stably transfected to co-express full length mouse ASIC1a and mouse ASIC3 (3T3/mASIC1/3; amino acids 1-526 of NCBI accession number NP_{—}033727 and amino acids 1-530 of NCBI accession number NP_{—}892045.2). Antibody binding was determined using flow cytometry (FACS).
(§2) To perform the FACS binding experiments, adherent cells were collected with cold Millipore Accutase 3-5 minutes, spun and resuspended in ice-cold FACS buffer (PBS, 2% HI-FBS and 0.09% Na-azide). Anti-ASIC1 antibody at final concentrations of 10 nM was added for 20-30 minutes on ice. Cells were washed with 900 μL ice-cold FACS buffer, spun, and resuspended in 100 μL ice-cold FACS buffer. A secondary antibody which recognizes human Fc (Jackson Immuno Research, #109-136-098) and is conjugated to allophycocyanin, was then added to the cell mixture at a final concentration of 2.5 ug/mL. After incubating for 20 minutes on ice, the cells were washed and resuspended in FACS buffer, then sorted and analyzed on a flow cytometer (FACSCanto II, BD Biosciences, San Jose, Calif.) to determine relative binding by the candidate antibodies to the tested cell lines. Histograms of cells stained with anti-ASIC1 antibodies were compared with those of cells stained with secondary antibody alone. Percentage of ASIC1 signal over secondary antibody alone was calculated using FlowJo software (Tree Star, Ashland, Oreg.).

human ASIC1 [2] = molecular target: T2, human ASIC1; assay: FACS titration, 3T3/hASIC1 cells
Procedure: To perform the FACS binding experiments, adherent cells were collected using 1 mM EDTA in PBS, then washed, and re-suspended in cold PBS containing 5% FBS. For each binding experiment, each anti-ASIC1 antibody ([…] or ND7 cells) was added to 250,000 cells in 500 μL of PBS with 5% FBS. After incubation for 20 minutes at room temperature, a secondary antibody which recognizes human Fc (Cat. No. 109-136-098, Jackson ImmunoResearch Laboratories, Inc., West Grove, Pa.) or mouse Fc (Cat. No. 550826, BD Biosciences, San Jose, Calif.) and is conjugated to allophycocyanin, was then added to the cell mixture at a final concentration of 13.3 nM. After incubating for 20 minutes on ice, the cells were washed and resuspended in PBS containing 5% FBS, then sorted and analyzed on a flow cytometer (FACSCalibur, BD Biosciences, San Jose, Calif.) to determine relative binding by the candidate antibodies to the tested cell lines. Histograms of cells stained with anti-ASIC1 antibodies were compared with those of cells stained with secondary antibody alone. Percentage of ASIC1 signal over secondary antibody alone was calculated using FlowJo software (Tree Star, Ashland, Oreg.).

human ASIC3 [3] = molecular target: T3, human ASIC3; assay: FACS, 3T3/hASIC3 cells, 10 nM antibody
From the text: as §1, §2

human ASIC1 [4] = molecular target: T2, human ASIC1; assay: cell-based or functional assay
human ASIC1 [5] = molecular target: T2, human ASIC1; assay: cell-based or functional assay; remark: listed apart in the source
human ASIC3 [6] = molecular target: T3, human ASIC3; assay: FACS, 3T3/hASIC3 cells
From the text: as §1, §2

| Binder | binding result [1] | EC50 (human ASIC1 [2]) [nM] | binding result (human ASIC3 [3]) | FLIPR Dose Curve, pH 5.0 % Block (human ASIC1 [4]) [%] | FLIPR Dose Curve, pH 5.5 % Block (human ASIC1 [4]) [%] | FLIPR Dose Curve, pH 5.5 IC50 (human ASIC1 [4]) [nM] | Current inhibition (%) at 100 nM antibody, Q-Patch, pH 6.0 (human ASIC1 [5]) [%] | binding result (human ASIC3 [6]) | FLIPR Dose Curve, pH 5.0 IC50 (human ASIC1 [4]) [nM] |
| --- | --- | --- | --- | --- | --- | --- | --- | --- | --- |
| B1 | binds | < 0.1 | binds | 10 | 64 | 6 | 0 |  |  |
| B2 | binds | 0.072 |  | 10 | 39 | 0.1 | 30 | no binding (tested: 10 nM; gated lower than 1%) |  |
| B3 | binds | 0.215 |  | 23 | 63 | 0.2 |  | no binding (tested: 10 nM; gated lower than 1%) |  |
| B4 | binds | 0.853 |  | 56 | 71 | 0.9 |  | no binding (tested: 10 nM; gated lower than 1%) | 1 |
